The values that follow come from patent US20260297165 (published 2026).

The assay addresses C9 (human, UniProt P02748). Briefly: other (MSD ECL).

Substitutions are numbered along the chain they refer to. In names and notes the source's numbering stands.

Chain of C9 (P02748 22-559): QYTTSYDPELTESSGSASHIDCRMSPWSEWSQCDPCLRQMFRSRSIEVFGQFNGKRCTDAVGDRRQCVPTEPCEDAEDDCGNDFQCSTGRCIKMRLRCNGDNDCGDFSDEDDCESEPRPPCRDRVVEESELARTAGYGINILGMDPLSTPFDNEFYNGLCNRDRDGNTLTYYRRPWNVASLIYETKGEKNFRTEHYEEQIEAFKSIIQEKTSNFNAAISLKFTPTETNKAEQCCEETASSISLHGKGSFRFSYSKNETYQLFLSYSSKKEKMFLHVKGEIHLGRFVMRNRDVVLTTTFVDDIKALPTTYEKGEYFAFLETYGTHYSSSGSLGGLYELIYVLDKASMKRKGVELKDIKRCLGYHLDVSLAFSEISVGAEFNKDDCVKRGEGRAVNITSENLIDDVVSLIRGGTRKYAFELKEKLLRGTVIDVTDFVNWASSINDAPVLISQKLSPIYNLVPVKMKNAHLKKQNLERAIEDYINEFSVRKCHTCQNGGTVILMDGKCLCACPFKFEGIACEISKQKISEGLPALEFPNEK

B1: sCD59 wild-type, in-house purified (protein)
chain: MGIQGGSVLFGLLLVLAVFCHSGHSLQCYNCPNPTADCKTAVNCSSDFDACLITKAGLQVYNKCWKFEHCNFNDVTTRLRENELTYYCCKKDLCNFNEQLEN
Broadly, the Kd is the equilibrium constant for the complex coming apart. Turning to B1, the Kd worked out at 38.6 nM.

B2: Vector KRE sCD59-6xHis wild-type (protein)
chain: MGIQGGSVLFGLLLVLAVFCHSGHSLQCYNCPNPTADCKTAVNCSSDFDACLITKAGLQVYNKCWKFEHCNFNDVTTRLRENELTYYCCKKDLCNFNEQLENHHHHHH
Regarding B2, the Kd was 34.3 nM.

B3: Vector KRG vsCD59 N18Q-6xHis (protein)
chain: B2 chain with N43Q
Molecule B3 returned a Kd of 16 nM.

B4: Vector MTA sCD59 S20G-6xHis (protein)
chain: B2 chain with S45G
In turn, B4 registered a Kd of 46.1 nM.

B5: Vector KRM vsCD59 K38R-6xHis (protein)
chain: B2 chain with K63R
Turning to B5, the Kd came out at 39 nM.

B6: Vector MTE sCD59 S20G,T51G-6xHis (protein)
chain: B2 chain with S45G, T76G
B6 registered a dissociation constant (Kd) of 28.9 nM.

B7: Vector MTC sCD59 T51G-6xHis (protein)
chain: B2 chain with T76G
The molecule B7 came in with a Kd of 23.7 nM.

B8: sCD59 (His)10 wild-type, commercial (protein)
chain: LQCYNCPNPTADCKTAVNCSSDFDACLITKAGLQVYNKCWKFEHCNFNDVTTRLRENELTYYCCKKDLCNFNEQLEN
In turn, B8 gave a Kd of 33.1 nM.
